The values that follow come from paper PMC7979749, “Structural basis of the dynamic human CEACAM1 monomer-dimer equilibrium” (Communications Biology, 2021).

For orientation: Kd means the concentration at which binding is half-saturated. Broadly, the stoichiometry N is a count of units in the complex or per binding partner.

Data set [1] addresses CEACAM1 IgV (Homo sapiens) (UniProt P13688). Particulars: cited from earlier work.
In data set [2] the target is TIM-3 IgV (Homo sapiens) (UniProt Q8TDQ0). The note with it: cited from earlier work.
Data set [3] concerns the target human CEACAM1 IgV domain, N97A mutant (human) (UniProt P13688). Briefly: NMR titration; 15N-HSQC spectra at varying protein concentration (N97A 16-500 μM; WT 10 μM and 1 mM); 10 mM HEPES, 50 mM NaCl, pH 7.0, 25 °C; dimer to monomers; rough estimate from peak trajectories of Q44 and A49.
Data set [4] concerns the molecule itself. Description: SEC-MALS; samples at 100 μM injected onto TSK-gel Bioassist G4SWxl, 10 mM HEPES pH 7.4, 150 mM, 0.5 mL/min; self-association, monomer to dimer. In general terms: Size exclusion chromatography separates by hydrodynamic size, large species first.
Data set [5] deals with the molecule itself. Briefly: crystal structure; mutant proteins concentrated to 10 mg/ml (exceeding 800 μM); molecular replacement with PDB 4QXW; self-association in the asymmetric unit.

Sequence of TIM-3 IgV (Homo sapiens) (Q8TDQ0 22-124): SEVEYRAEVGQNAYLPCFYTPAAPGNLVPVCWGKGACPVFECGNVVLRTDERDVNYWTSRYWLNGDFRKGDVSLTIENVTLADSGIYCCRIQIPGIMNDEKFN

Regarding CEACAM1 IgV (from UniProt P13688), the Kd in data set [1] was 0.45 µM; in data set [2], 2.5 µM.
As for “human CEACAM1 IgV domain, N97A mutant (from UniProt P13688 35-141) (domain or fragment)”, the Kd in data set [3] is over 1000 µM.

B1: human CEACAM1 IgV domain, V39A mutant (domain or fragment)
chain: QLTTESMPFNVAEGKEVLLLVHNLPQQLFGYSWYKGERADGNRQIVGYAIGTQQATPGPANSGRETIYPNASLLIQNVTQNDTGFYTLQVIKSDLVNEEATGQFHVY
notes: unglycosylated; also called hCEACAM1 V39A
Regarding B1, the binding result in data set [4] is reported as “binds”.

B2: human CEACAM1 IgV domain, I91A mutant (domain or fragment)
chain: QLTTESMPFNVAEGKEVLLLVHNLPQQLFGYSWYKGERVDGNRQIVGYAIGTQQATPGPANSGRETIYPNASLLIQNVTQNDTGFYTLQVAKSDLVNEEATGQFHVY
notes: unglycosylated
For B2, in data set [5], the binding result is on record as “binds”.

B3: human CEACAM1 IgV domain, wildtype (domain or fragment)
chain: AQLTTESMPFNVAEGKEVLLLVHNLPQQLFGYSWYKGERVDGNRQIVGYAIGTQQATPGPANSGRETIYPNASLLIQNVTQNDTGFYTLQVIKSDLVNEEATGQFHVY
notes: Carcinoembryonic antigen-related cell adhesion molecule 1 (CEACAM1), human, N-terminal IgV domain; NMR samples were 15N/13C or 15N/13C/2H labelled; also called hCEACAM1 WT IgV; WT; source: isotope-labelled samples expressed from E. coli in M9 minimal medium, purified
Turning to B3, the “stoichiometry N” value in data set [4] worked out at 2.
